In patent US11976099B2, “Compositions and methods for treatment of bone associated diseases” (THE NATIONAL INSTITUTE FOR BIOTECHNOLOGY IN THE NEGEV LTD., priority 2016, dated 2024):

B1: M-CSFM: 158 amino acid M-CSF with cysteine at position 31 replaced by serine (SEQ ID NO: 2) (protein)
chain: EEVSEYCSHMIGSGHLQSLQRLIDSQMETSSQITFEFVDQEQLKDPVCYLKKAFLLVQDIMEDTMRFRDNTPNAIAIVQLQELSLRLKSCFTKDYEEHDKACVRTFYETPLQLLEKVKNVFNETKNLLDKDWNIFSKNCNNSFAECSSQGHERQSEGS
B2: 5.6: bispecific M-CSFRGD variant from sort five; M-CSFM loop replaced by XXXRGDXXX motif; binds c-FMS and αvβ3 integrin (protein)
chain: EEVSEYCSHMIGSGHLQSLQRLIDTYPRGDMCSITFEFVDQEQLKDPVCYLKKAFLLVQDIMEDTMRFRDNTPNAIAIVQLQELSLRLKSCFTKDYEEHDKACVRTFYETPLQLLEKVKNVFNETKNLLDKDWNIFSKNCNNSFAECSSQGHERQSEGS
modifications: left off: small tags and cut ends

Tests used:
[1] = tested on: Murine bone marrow derived monocytes (BMMs); test: Direct cell binding assay, flow cytometry, murine primary cells; format: cell-based, mouse; conditions: for direct cell binding: mouse primary cells, 1 μM, 2.5 μM and 7.5 μM
Procedure: Murine bone marrow derived monocytes (BMMs) were obtained by flushing the bone marrow from the femur and tibia of WT C57BL6 mice. The cells were treated with ACK red lysis buffer (Thermo Fisher Scientific, USA) and plated on bacterial culture dishes in αMEM growth medium (Biological Industries, Israel) containing recombinant murine M-CSF (40 ng/ml) (R&D systems, USA). The cells were incubated for 3 days at 37° C. under 5% CO2 to induce monocyte adhesion and proliferation. The plates were washed with PBS, the cells were detached using a cell scraper, and 10^5 cells were transferred to each well in a 96-well plate. The cells were washed twice with 200 μl of 0.1% PBSA. Binding was determined as described for labeled M-CSFM and the M-CSFRGD proteins. For murine c-FMS expression, anti-mouse CD115 (CSF-1R) (BioLegend, USA) was used at 1:50 concentration and detected with goat anti-rat (PE) antibody (Abcam, USA). For αvβ3 integrin expression, the Alexa Fluor® 488 anti-mouse/rat CD61 (BioLegend, USA) antibody was used as previously described. Samples were analyzed with Accuri C6 flow cytometry analyzer (BD Biosciences, USA). The experiment was repeated three times at each concentration.
Assays for direct cell binding were conducted on breast cancer cell line MDA-MB-231 and murine primary cells with flow cytometer. MDA-MB-231 was used because the cells express αvβ3 integrin and c-FMS on the cell membrane, a protein expression pattern that imitates the osteoclast state just before reaching full differentiation and maturation. […] Murine primary cells that were obtained from bone marrow were tested for binding without any induction of differentiation (t=0). Such cells express high levels of c-FMS and low levels of αvβ3 integrin (FIGS. 11A and 11B), a state that imitates an early osteoclast differentiation stage.

c-FMS and αvβ3 integrin = test: YSD binding of M-CSFRGD variants to c-FMS and αvβ3 integrin, alone and simultaneously; design: species or system human
Procedure: For expressing the M-CSFM gene and the two M-CSFRGD libraries on the yeast surface, the SDCAA medium was replaced by SGCAA medium (2% galactose, 0.67% yeast nitrogen base, 0.5% bacto casamino acids, 1.47% sodium citrate, 0.429% citric acid monohydrate) and the yeasts were incubated overnight at 30° C. until the culture reached OD600=10.0 (10^8 cells per ml). A number of cells equal to ten times the library size was added to 1 ml of PBS containing 1% bovine serum albumin (PBSA); the suspension was centrifuged, and the supernatant was removed. For binding analysis of M-CSFM and the M-CSFRGD libraries to c-FMS, yeast cells were incubated with mouse anti c-myc antibody, 9E10 (Abcam, Cambridge, MA, USA) in a 1:50 ratio and different concentrations of soluble Fc conjugated human c-FMS (R&D systems, USA) for 1 h at room temperature. […]
To identify the high αvβ3 integrin and c-FMS binders, 25 different clones from sort 4 and 25 different clones from sort 5 were tested for binding to 20 nM of αvβ3 integrin, as described in the flow cytometry sorting section. […] To determine the binding specificity to other RGD binding integrins, namely α4β7, […], α5β1 and αvβ5 (BioLegend, USA), the three chosen M-CSFRGD variants (4.22, 4.24 and 5.6) were analyzed for binding to 250 nM of each integrin. […]

Row | Molecule | direct cell binding [1] | relative cell binding ([1]; no induction of differentiation (t=0)) | relative affinity for c-FMS and αvβ3 integrin (c-FMS and αvβ3 integrin) | simultaneous binding of c-FMS and αvβ3 integrin (c-FMS and αvβ3 integrin; data not shown)
1 | B1 | binding in a dose dependent manner | stronger cell binding than 5.6 and 4.22 | – | –
2 | B2 | binding in a dose dependent manner | – | higher affinity for c-FMS than for αvβ3 integrin | could simultaneously bind c-FMS and αvβ3 integrin
